Experimental data reported in patent publication US20220412989A1, “COMPOSITIONS AND METHODS FOR DETECTING CELLS UNDERGOING FERROPTOSIS USING AN ANTIBODY” (THE TRUSTEES OF COLUMBIA UNIVERSITY IN THE CITY OF NEW YORK, priority 2020, published 2022).

Test system: A-673, SK-BR-3, Huh-7 and SK-LMS-1 cells
Experiment: Immunofluorescence staining in other cancer cell lines
Assay type: cell-based, human
Details: 1 μM RSL3, 4 h
Procedure: HT-1080 (ATCC Cat #CRL-7951, RRID:CVCL_0317), A-673, SK-BR-3, SK-LMS-1 and Huh-7 cells were treated with 1 μM RSL3 for 4 h, 15 μM erastin for 8 h, 10 μM IKE for 8 h, 15 μM FINO2 for 8 h, 10 μM FIN56 for 8 h, 100 μM tBuOOH for 8 h, 1 μM staurosporine (STS) for 6 h, 2 μM camptothecin (CPT) for 24 h, 1 μM RSL3+5 μM Fer-1 for 4 h and 10 μM IKE+5 μM Fer-1 for 8 h on poly-lysine-coated cover slips (Sigma Aldrich P4832) in 24-well plate. Media were taken out and the cells were gently washed with PBS^++ (PBS with 1 mM CaCl2) and 0.5 mM MgCl2) twice. The cells were fixed and permeabilized by adding 200 μL/well of 4% paraformaldehyde (PFA) in PBS with 0.1% Triton X-100 (PBT), and incubated at room temperature for 18 min. The cells were then washed with PBT three times. Then the cells were blocked with 5% goat serum (ThermoFisher 50197Z) in PBT for 1 h at room temperature. […] When applicable, line-scan analysis was performed on representative confocal microscopy images using Zeiss LSM software to qualitatively visualize fluorescence overlap.
The quantification of the intensity of antibodies was analyzed using CellProfiler 3.1.8 (Carpenter et al., 2006) (CellProfiler Image Analysis Software, RRID:SCR_007358). […] Then mean intensities and size areas of nuclei, cytoplasm and plasma membranes were then measured and reported. […]

B1: 3F3-FMA: murine monoclonal IgG1 raised against ferroptotic membrane fractions; antigen is human transferrin receptor protein 1 (TfR1) (antibody, V domains shown)
VH: EVLLQQSGTELVRPGALVKLSCKASGFNIQDLYIHWVKQRPEQGLEWIGWIDPETDNTIYDPKFQGKASITADTSSNTAYLQLSSLTSEDTAMYYCSTGLLQWYFDVWGAGTAVTVSS
VL: DIVMTQSPSSLAMSIGQKVTMRCKSSQSLLNSYNQKNCLAWYQQKPGQSPKLLLYFVSTRESGVPDRFIGSGSGTDFTLTISSVQAEDLADYFCQQHYSTPLTFGAGTKLELK
staining upon ferroptosis induction: staining concentrated at the cell boundaries and became brighter
